# Values of other authors in patent publication US20190360013.
# pKd: −log10 of the molar value.
# System: mEcSSB (monomeric E. coli SSB) (Escherichia coli)
# Details: CITED; at ion concentrations optimal for TdT; footprint 65 nt
substance,measurement,value
ssDNA (65-nt footprint),pKd,> 12.00
